Measured values published in US20070154472A1 (published 2007).
[ ]: non-standard residue; d: D form. The star is where a group is joined. Biotin = O=C1N[C@H]2[C@H](CS[C@H]2CCCCC(=O)*)N1; pY = N[C@@H](Cc1ccc(OP(=O)(O)O)cc1)C(=O)O; βAla = NCCC(=O)O

T1: fully sulfated and glycosylated human PSGL-1 19.ek.Fc fusion protein (human, sulfated tyrosines (y in QATEyEyLDyDFL, corresponding to Tyr46, Tyr48 and Tyr51 of mature human PSGL-1); O-linked glycan; biotinylated in the assays)
T1 construct: also called PSGL-19.ek.Fc; PSGL-19.ed.Fc; not shown: human IgG1 Fc as described in Somers et al., Cell 103:467-479 (2000)
T1 chain: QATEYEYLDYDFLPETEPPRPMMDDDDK

T2: Phospho-BTK peptide (SMILES …)
T2 peptide: Biotin-[βAla]KKVVAL[pY]D[pY]MPMN-OH

T3: BTK peptide (non-phosphorylated)
T3 construct: also called Tufts peptide
T3 peptide: {Biotin-βAla}-AKKVVALYDYMPMN-OH


Experiments:
[1] = molecular target: T1, fully sulfated and glycosylated human …; assay: SPR (BIAcore 2000), biotinylated PSGL-1 19.ek.Fc on streptavidin chip, antibody 0-100 nM
Protocol: (§1) Surface plasmon resonance binding analysis. A BIAcore 2000 instrument (BIAcore AB, Uppsala, Sweden) was used to analyze the interactions between the identified antibodies and biotinylated PSGL-1 19.ek.Fc or derived peptides. Binding experiments were performed at 25° C. using streptavidin-coated sensor chips (BIAcore) and HBS-P buffer (20 mM HEPES [pH 7.4], 150 mM NaCl and 0.005% polysorbate 20 v/v) adjusted to 1 mM for both CaCl₂ and MgCl₂. The streptavidin on the sensor surfaces were conditioned with three one-minute injections of a solution containing 1 M NaCl and 25 mM NaOH. The chips were regenerated with 5 μL of 0.1% TFA and equilibrated with running buffer. […] Binding kinetics were analyzed using BIAevaluation software (V2.1; Pharmacia Biosensor, Uppsala, Sweden). The response representing the mass of bound monoclonal antibodies was measured in resonance units (RU). […] Binding kinetics of human anti-PSGL-1 monoclonal antibodies to the immobilized PSGL-1 19.ek.Fc was determined under partial mass transport limitations by triplicate injections at a concentration range (0-100 nM) onto the immobilized biotinlylated PSGL-1 19.ek.Fc peptide at a flow rate of 30 μL/min, following injection for two minutes. Dissociation was monitored for ten minutes at the same flow rate.

[2] = molecular target: T4, unglycosylated and unsulfated synthetic peptide 19.ek (human, biotinylated; no sulfate, no glycan); assay: SPR (BIAcore), biotinylated peptide on streptavidin chip
T4 construct: also called synthetic peptide lacking sulfated tyrosine
Protocol: as §1, with “rate. […]” for “rate.”

Phospho-BTK peptide = molecular target: T2, Phospho-BTK peptide; assay: dot blot on P81 phosphocellulose filters
Source text: (§2) PSG2 is Specific for Sulfotyrosine as Compared to Phosphotyrosine. To compare binding to various peptides, a GPG-290 polypeptide (GPG) or a BTK peptide (BTK) (Tufts peptide) (biotin-βAla-[…]-[OH]) (SEQ ID NO:339), one microliter of 1:3 dilutions of compound was spotted onto P81 phosphocellulose filters (Upstate Cell Signaling #20-134). GPG-290 is a dimeric molecule consisting of the N-terminal 290 amino acids of GPIbα fused to a mutated Fc domain of human IgG1. It contains 3 sulfated tyrosine residues at positions 276, 278, and 279. The BTK peptide is biotin-βAla-[…]-[OH] (SEQ ID NO:339). Phospho-BTK contains 2 phosphorylated tyrosine residues. The starting dilution for GPG-290 was 250 ng/μl and for the BTK peptide the starting dilution was 3 μg/μl. Western Blot analysis was performed as follows: filters were blocked for 1 hour in blocking buffer (TBS+0.1% Tween-20 (TBS/T) and 5% nonfat dry milk). Filters were washed in TBS/T and incubated overnight in primary antibody diluted in TBS/T+0.5% BSA. Washed filters were incubated for 1 hour with secondary antibody diluted in blocking buffer (HRP-mouse anti-human IgG4 to detect PSG-2 and HRP-goat anti-mouse IgG+A+M to detect anti-phospho-tyrosine antibody). HRP signal was detected with the SuperSignal Chemiluminescent Substrate (Pierce) and the filters were exposed to X-ray film.

[3] = molecular target: T3, BTK peptide (non-phosphorylated); assay: dot blot on P81 phosphocellulose filters
Source text: as §2

| Binder | Ka [1] [M⁻¹] | binding result [2] | binding result (Phospho-BTK peptide) | binding result [3] |
| --- | --- | --- | --- | --- |
| PSG1 full-length bivalent antibody (human IgG4, lambda) (antibody, V domains shown, also called human monoclonal antibody PSG1) VH: QVQLQESGAEVKKPGASVKVSCKSSGYTFTAYYMHWLRQAPGQGLEWMGWINPNSGGTNYAQKFQGRVTLTRDTSISTAYMELNSLTSDDTAMYYCARGGPRVSSRPGIGYSDSWGKGTLVTVSS VL: QTVVLQEPSLTVSPGGTVTLTCASRIGAVTSGHYANWFQQKPGQAPRALIYRTNNKQSWTPARFSGSLLGDRAALTLSGAQPEDEADYYCLLYYGGSWVFGGGTKLTVLG | ~7.5e+09 | no binding (tested: 100 nM) |  |  |
| PSG2 full-length bivalent antibody (human IgG4, lambda) (antibody, V domains shown, also called P5G2; human monoclonal antibody PSG2) VH: not shown VL: QAVLTQPSSLSASPGASASLTCTLRSGIDVGPHRIYWFQQKPGSTPQYLLRYKSDSDTQQGSGVPSRFSGSKDASANAGILLISGLQSEDEADYYCMIWHSSAWVFGGGTKLTVLG | ~3.2e+10 | no binding (tested: 100 nM) | no binding | no binding |
